One substance from publication PMC9516341 can be followed below.

In this experiment the target is Flag-tagged ARNO (p3XFLAG-2-mCytohesin-2). As to the kind of experiment: co-immunoprecipitation (anti-FLAG M2 IP of FLAG-ARNO, immunoblot for FE65, quantified). The settings on record: transfected cell lysate; three independent experiments; unpaired t-test, *p < 0.001; parent: 1. (In general: Immunoblotting shows a protein as a band on a membrane.)

Turning to “Myc-tagged FE65 (from UniProt O00213) R605A”, the ratio to parent was found to be 0.34.
